Measured values: US20210101973A1 (NGM BIOPHARMACEUTICALS, published 2021)

T1: synthetic LEAP2 peptide (mature peptide of human LEAP2) (human)
T1 peptide: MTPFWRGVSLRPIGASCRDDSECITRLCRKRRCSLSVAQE


Molecular target: T1, synthetic LEAP2 peptide (mature peptide …)
Assay: cell-based or functional assay

EC50 of blocking LEAP2 inhibition of GHSR activity (antibody mixed with LEAP2, antagonist format, GHSR-stable cell line) [nM]	Binder
680	anti-LEAP2 monoclonal antibody M18 (antibody, V domains shown) VH: EIQLQQSGPELMKPGASVKISCKASGYSFTNYYIHWVKQSHGKSLEWIGYIDPFNGGTNYNQKFKGKATLTVDKSSSTAYMHLSSLTFEDSAVYYCARRGYYYGFTYWGQGTLVTVSA VL: DIVLTQSPASLAVSLGQRATISCKASQSVDYDGDSYMNWYQQKPGQPPKLLIYTASNLESGIPARFSGSGSGTDFTLNIHPVEEEDAATYYCQQSNEDPYTFGGGTKLEIK
170	anti-LEAP2 monoclonal antibody M1/M2 (antibody, V domains shown) VH: EVQLQQSGTVLARPGASVKMSCKASGYTFTSYWMHWVKQRPGQGLEWIGAIYPGNSDTSYKQKFKGKAKLTAVTSASTVYMELSSLTDEDSAVYYCTYGKEEYLFAMDYWGQGTSVTVSS VL: not shown
